Measured values published in patent US20220411491A1 (Hoffmann-La Roche, published 2022).
Substitutions are numbered along the chain they refer to.

B1: 10B10-TCB (bispecific antibody, human IgG1, kappa, L234A L235A)
light 1: DIQLTQSPHSLSASLGETVSIECLASEGISNYLAWFHQKPGKSPQLLIYYASSLQDGVPSRFSGSGSGTQYSLKISNMQPEDEGVYYCQQGYKYPLTFGSGTKLEIKRTVAAPSVFIFPPSDRKLKSGTASVVCLLNNFYPREAKVQWKVDNALQSGNSQESVTEQDSKDSTYSLSSTLTLSKADYEKHKVYACEVTHQGLSSPVTKSFNRGEC
light 2: EVQLLESGGGLVQPGGSLRLSCAASGFTFSTYAMNWVRQAPGKGLEWVSRIRSKYNNYATYYADSVKGRFTISRDDSKNTLYLQMNSLRAEDTAVYYCVRHGNFGNSYVSWFAYWGQGTLVTVSSASVAAPSVFIFPPSDEQLKSGTASVVCLLNNFYPREAKVQWKVDNALQSGNSQESVTEQDSKDSTYSLSSTLTLSKADYEKHKVYACEVTHQGLSSPVTKSFNRGEC
heavy 1: EVQLVESGGGLVQPGRSMKLSCAASGFTFTNFYMAWVRQAPTKALEWVASINTGGGYTYYRDSVKGRFTVSRDNTRSTLYLQMDSLRSEETATYYCARHLTYYGRYYYFDYWGQGVMVTVSSASTKGPSVFPLAPSSKSTSGGTAALGCLVEDYFPEPVTVSWNSGALTSGVHTFPAVLQSSGLYSLSSVVTVPSSSLGTQTYICNVNHKPSNTKVDEKVEPKSCDKTHTCPPCPAPEAAGGPSVFLFPPKPKDTLMISRTPEVTCVVVDVSHEDPEVKFNWYVDGVEVHNAKTKPREEQYNSTYRVVSVLTVLHQDWLNGKEYKCKVSNKALGAPIEKTISKAKGQPREPQVCTLPPSRDELTKNQVSLSCAVKGFYPSDIAVEWESNGQPENNYKTTPPVLDSDGSFFLVSKLTVDKSRWQQGNVFSCSVMHEALHNHYTQKSLSLSPGK
heavy 2: not shown
B2: P1AE5733 (antibody, V domains shown)
VH: EVQLVESGGGLVQPGRSLKLSCAASGFSFSNYGMAWVRQAATKGLEWVASISTGGGNTYYRDSVKGRFIVSRDNAKNTQYLQMDSLRSEDTATYYCTRHDRGGLYWGQGVMVTVSS
VL: DIVMTQAPLSVSVTPGESASISCRSSKSLLHSNGITYVYWYFQKPGKSPQVLIYRMSNLASGVPDRFSGSGSETDFTLKISRVEAEDVGIYHCGQLLENPYTFGAGTELELK
B3: P1AE5739 (antibody, V domains shown)
VH: EVQLVESGGGVVQPGRSLRLSCAASGFSFSNYGMAWVRQAPGKGLEWVASISTGGGNTYYRDSVKGRFTISRDNAKNTLYLQMNSLRAEDTAVYYCTRHDRGGLYWGQGTMVTVSS
VL: DIVMTQSPLSLPVTPGEPASISCRSSKSLLHSNGITYVYWYLQKPGQSPQVLIYRMSNLASGVPDRFSGSGSGTDFTLKISRVEAEDVGVYHCGQLLENPYTFGQGTKLEIK
B4: P1AE5743 (antibody, V domains shown)
VH: B3 VH
VL: EIVLTQSPGTLSLSPGERATLSCRASKSLLHSNGITYVYWYQQKPGQAPRLLIYRMSNLASGIPDRFSGSGSGTDFTLTISRLEPEDFAVYHCGQLLENPYTFGQGTKLEIK
B5: P1AE5742 (antibody, V domains shown)
VH: B3 VH
VL: DIVMTQSPDSLAVSLGERATINCKSSKSLLHSNGITYVYWYQQKPGQPPKLLIYRMSNLASGVPDRFSGSGSGTDFTLTISSLQAEDVAVYHCGQLLENPYTFGQGTKLEIK
B6: P1AE5757 (antibody, V domains shown)
VH: B3 VH with V11L, R16G
VL: B3 VL with V51L, L59R
B7: P1AE5755 (antibody, V domains shown)
VH: B3 VH with V11L, R16G
VL: B3 VL
B8: P1AE5737 (antibody, V domains shown)
VH: B3 VH with E1Q, A75S
VL: B5 VL
B9: P1AE5750 (antibody, V domains shown)
VH: B3 VH with R61A
VL: B3 VL
B10: P1AE5758 (antibody, V domains shown)
VH: B3 VH with V11L, R16G
VL: B5 VL
B11: P1AE5759 (antibody, V domains shown)
VH: B3 VH with V11L, R16G
VL: B4 VL
B12: P1AE5749 (antibody, V domains shown)
VH: B3 VH with E1Q, R61A, A75S
VL: B4 VL
B13: P1AE5762 (antibody, V domains shown)
VH: B3 VH with V11L, R16G, R61A
VL: B3 VL with V51L, L59R
B14: P1AE5734 (antibody, V domains shown)
VH: B3 VH with E1Q, A75S
VL: B3 VL
B15: P1AE5736 (antibody, V domains shown)
VH: B3 VH with E1Q, A75S
VL: B3 VL with V51L, L59R
B16: P1AE5741 (antibody, V domains shown)
VH: B3 VH
VL: B3 VL with V51L, L59R
B17: P1AE5752 (antibody, V domains shown)
VH: B3 VH with R61A
VL: B3 VL with V51L, L59R
B18: P1AE5761 (antibody, V domains shown)
VH: B3 VH with V11L, R16G, R61A
VL: B3 VL with Q47K
B19: P1AE5753 (antibody, V domains shown)
VH: B3 VH with R61A
VL: B5 VL
B20: P1AE5745 (antibody, V domains shown)
VH: B3 VH with E1Q, R61A, A75S
VL: B3 VL with Q47K
B21: P1AE5763 (antibody, V domains shown)
VH: B3 VH with V11L, R16G, R61A
VL: B5 VL
B22: P1AE5764 (antibody, V domains shown)
VH: B3 VH with V11L, R16G, R61A
VL: B4 VL
B23: P1AE5740 (antibody, V domains shown)
VH: B3 VH
VL: B3 VL with Q47K
B24: P1AE5744 (antibody, V domains shown)
VH: B3 VH with E1Q, R61A, A75S
VL: B3 VL
B25: P1AE5756 (antibody, V domains shown)
VH: B3 VH with V11L, R16G
VL: B3 VL with Q47K
B26: P1AE5746 (antibody, V domains shown)
VH: B3 VH with E1Q, R61A, A75S
VL: B3 VL with V51L, L59R
B27: P1AE5760 (antibody, V domains shown)
VH: B3 VH with V11L, R16G, R61A
VL: B3 VL
B28: P1AE5747 (antibody, V domains shown)
VH: B3 VH with E1Q, R61A, A75S
VL: B5 VL
B29: P1AE5735 (antibody, V domains shown)
VH: B3 VH with E1Q, A75S
VL: B3 VL with Q47K
B30: P1AE5738 (antibody, V domains shown)
VH: B3 VH with E1Q, A75S
VL: B4 VL
B31: P1AE5754 (antibody, V domains shown)
VH: B3 VH with R61A
VL: B4 VL
B32: P1AE5751 (antibody, V domains shown)
VH: B3 VH with R61A
VL: B3 VL with Q47K

Target: T1, human GPRC5D (human, UniProt Q9NZD1 1-345)
Experiment: cell-based or functional assay

T1 sequence (Q9NZD1 whole entry): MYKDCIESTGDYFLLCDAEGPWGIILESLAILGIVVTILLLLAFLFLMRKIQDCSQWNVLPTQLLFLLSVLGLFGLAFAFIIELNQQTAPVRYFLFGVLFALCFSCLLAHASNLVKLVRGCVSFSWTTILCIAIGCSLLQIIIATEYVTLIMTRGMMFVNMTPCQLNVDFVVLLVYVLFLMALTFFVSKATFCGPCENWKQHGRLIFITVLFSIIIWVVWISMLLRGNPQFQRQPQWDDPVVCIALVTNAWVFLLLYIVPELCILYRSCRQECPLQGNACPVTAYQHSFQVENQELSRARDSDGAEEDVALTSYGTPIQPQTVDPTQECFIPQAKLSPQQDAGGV

With B1 the “EC50 of in vitro killing, AMO-1” value was 0.084 nM.

B1 was tested, and the “EC50 of in vitro killing, EJM” value was 0.079 nM.

With B1 the “EC50 of in vitro killing, L363” value was 0.034 nM.

B1 was tested, and the “EC50 of in vitro killing, MOLP-2” value was 0.16 nM.

In the case of B1, the “EC50 of in vitro killing, NCI-H929” value is reported as 0.056 nM.

B1 was tested, and the “EC50 of in vitro killing, OPM-2” value was 0.028 nM.

B1 was tested, and the “EC50 of in vitro killing, RPMI” value was 0.965 nM.

Target: T1, human GPRC5D
Experiment: cell-based or functional assay
Remark: another data set of the same source

First: B2
Second: B3
The “CAR-J2 EC50” value of the first is 8.9-fold lower: 0.00265 µg/mL for the first, 0.0235 µg/mL for the second.

First: B4
Second: B5
The “CAR-J2 EC50” value of the first is 9.4-fold higher: 0.583 µg/mL for the first, 0.0619 µg/mL for the second.

B6 and B7 are within 1.5-fold of each other in “CAR-J2 EC50” value: 0.145 µg/mL for the first, 0.152 µg/mL for the second.

Compared with B8, B9 is 7-fold higher in “CAR-J2 EC50” value: 0.00295 µg/mL for the first, 0.0206 µg/mL for the second.

First: B10
Second: B11
The “CAR-J2 EC50” value of the first is 12-fold higher: 0.19 µg/mL for the first, 0.0157 µg/mL for the second.

B12 and B13 are within 1.5-fold of each other in “CAR-J2 EC50” value: 0.0826 µg/mL for the first, 0.0842 µg/mL for the second.

First: B14
Second: B15
The “CAR-J2 EC50” value of the first is 30-fold higher: 0.0415 µg/mL for the first, 0.00138 µg/mL for the second.

First: B16
Second: B17
The “CAR-J2 EC50” value of the first is 360-fold lower: 0.0014 µg/mL for the first, 0.509 µg/mL for the second.

First: B18
Second: B19
The “CAR-J2 EC50” value of the first is 2.5-fold higher: 0.0746 µg/mL for the first, 0.03 µg/mL for the second.

Compared with B20, B21 is 3.4-fold higher in “CAR-J2 EC50” value: 0.00162 µg/mL for the first, 0.00547 µg/mL for the second.

Compared with B22, B23 is 8.7-fold lower in “CAR-J2 EC50” value: 0.0782 µg/mL for the first, 0.00896 µg/mL for the second.

Compared with B24, B25 is 47-fold higher in “CAR-J2 EC50” value: 0.00363 µg/mL for the first, 0.17 µg/mL for the second.

Compared with B26, B27 is 2.7-fold lower in “CAR-J2 EC50” value: 0.514 µg/mL for the first, 0.19 µg/mL for the second.

First: B28
Second: B29
The “CAR-J2 EC50” value of the first is 2.2-fold higher: 0.183 µg/mL for the first, 0.0821 µg/mL for the second.

Going from B30 to B31, the “CAR-J2 EC50” value falls from 0.397 µg/mL to 0.00889 µg/mL (45-fold).

In the case of B32, the “CAR-J2 EC50” value is reported as 0.00644 µg/mL.
